Data as given in the Immune Epitope Database (IEDB).
Each block holds one sequence with its values, some of them ahead of it.

Key:
HLA-A*32:01 = experiment: IEDB peptide-MHC binding, purified MHC/competitive/radioactivity; filed as Kd, often an IC50 or EC50 that approximates it; ≥ and ≤ were set here for values at or beyond the usual limits of such assays
HLA-B*44:02 = experiment: as above
HLA-A*11:01 = experiment: IEDB peptide-MHC binding, purified MHC/direct/fluorescence; filed as Kd, often an IC50 or EC50 that approximates it; ≥ and ≤ were set here for values at or beyond the usual limits of such assays; settings: source organism: Pseudomonas tolaasii
HLA-A*01:01 [1] = experiment: as above; settings: source organism: Pseudomonas tolaasii
HLA-B*15:01 = experiment: as above; settings: source organism: Pseudomonas tolaasii
HLA-A*02:01 = experiment: as above; settings: source organism: Pseudomonas tolaasii
HLA-B*07:02 = experiment: as above; settings: source organism: Pseudomonas tolaasii
HLA-A*26:01 [2] = experiment: as above
HLA-B*27:05 = experiment: as above; settings: source organism: Pseudomonas tolaasii
HLA-A*31:01 = experiment: as above; settings: source organism: Pseudomonas tolaasii
HLA-B*08:01 = experiment: as above
HLA-A*03:01 = experiment: as above; settings: source organism: Pseudomonas tolaasii
HLA-B*40:01 [3] = experiment: as above; settings: source organism: Pseudomonas fluorescens
HLA-B*58:01 = experiment: as above; settings: source organism: Pseudomonas tolaasii
HLA-A*69:01 = experiment: as above; settings: source organism: Pseudomonas tolaasii
HLA-A*24:02 = experiment: IEDB peptide-MHC binding, purified MHC/competitive/fluorescence; ≥ and ≤ were set here for values at or beyond the usual limits of such assays
HLA-A*02:03 = experiment: IEDB peptide-MHC binding, purified MHC/competitive/radioactivity; filed as Kd, often an IC50 or EC50 that approximates it; ≥ and ≤ were set here for values at or beyond the usual limits of such assays
HLA-A*02:06 = experiment: as above
HLA-A*02:02 = experiment: as above
HLA-A*68:02 = experiment: as above
HLA-A*01:01 [4] = experiment: as above
HLA-A*30:01 = experiment: as above
HLA-A*30:02 = experiment: as above
HLA-A*26:01 [5] = experiment: as above
HLA-A*29:02 = experiment: as above
HLA-B*51:01 = experiment: as above
HLA-B*40:01 [6] = experiment: as above
[7] = source organism: Dengue virus 4 Singapore/8976/1995
[8] = source organism: Pseudomonas tolaasii
[9] = source organism: Dengue virus 1 Brazil/97-11/1997
[10] = source organism: Dengue virus 4 Philippines/H241/1956
[11] = source organism: Mammarenavirus whitewaterense
[12] = source organism: Mammarenavirus machupoense
[13] = source organism: Dengue virus 1 Singapore/S275/1990
[14] = source organism: Dengue virus 2 Jamaica/1409/1983
[15] = source organism: Dengue virus 3 Martinique/1243/1999
[16] = source organism: Lassa virus Josiah
[17] = source organism: Mammarenavirus juninense
[18] = source organism: Dengue virus 3 Sri Lanka/1266/2000

Sequence: ADMGCVVSW
Kd (HLA-A*32:01; [7]): 415 nM | Kd (HLA-B*44:02; [7]): 10.6 nM

Kd (HLA-A*11:01): ≥ 20000 nM | Kd (HLA-A*01:01 [1]): ≥ 20000 nM | Kd (HLA-B*15:01): ≥ 20000 nM | Kd (HLA-A*02:01): ≥ 20000 nM | Kd (HLA-B*07:02): ≥ 20000 nM | Kd (HLA-A*26:01 [2]; [8]): ≥ 20000 nM | Kd (HLA-B*27:05): ≥ 20000 nM | Kd (HLA-A*31:01): ≥ 20000 nM | Kd (HLA-B*08:01; [8]): ≥ 20000 nM | Kd (HLA-A*03:01): ≥ 20000 nM | Kd (HLA-B*40:01 [3]): 54.3 nM | Kd (HLA-B*58:01): ≥ 20000 nM | Kd (HLA-A*69:01): ≥ 20000 nM
Sequence: AEGTGITHL

Sequence: AEHSGTSHNI
Kd (HLA-B*44:02; [9]): 48.2 nM

Sequence: AGIAWIPYF
IC50 (HLA-A*24:02; source organism: Sudan ebolavirus): 2640 nM

Sequence: AICSAVPTEW
Kd (HLA-B*44:02; [10]): 743 nM

Sequence: ALNELPESL
Kd (HLA-A*32:01; [10]): 1400 nM | Kd (HLA-A*02:03; [10]): 94.1 nM

Sequence: ALNIALIAV
Kd (HLA-A*02:06; [11]): 100 nM | Kd (HLA-A*02:02; [11]): 0.699 nM | Kd (HLA-A*68:02; [11]): 3090 nM | Kd (HLA-A*02:03; [11]): 0.225 nM

Kd (HLA-A*68:02; source organism: Homo sapiens): ≥ 60000 nM
Sequence: AMKAQFERDL

Sequence: CMLNNSFYY
Kd (HLA-A*01:01 [4]; [12]): 1780 nM | Kd (HLA-A*30:01; [12]): 556 nM | Kd (HLA-A*32:01; [12]): 10500 nM | Kd (HLA-A*30:02; [12]): 5.46 nM | Kd (HLA-A*26:01 [5]; [12]): 958 nM | Kd (HLA-A*29:02; [12]): 1.33 nM

Sequence: CVMASSVLL
Kd (HLA-A*68:02; [13]): 1.46 nM

Sequence: DFIGFGAAY
Kd (HLA-A*26:01 [2]; source organism: Mycobacterium tuberculosis variant bovis): 3.2 nM

Sequence: DTIYPTAIY
Kd (HLA-A*26:01 [2]; source organism: Mycobacterium tuberculosis): 3 nM

Sequence: EPPFGDSYI
Kd (HLA-B*51:01; [14]): 349 nM

Sequence: FDLCEGTTVV
Kd (HLA-B*51:01; [9]): 10500 nM

Sequence: FETYQLWTAL
Kd (HLA-B*51:01; [15]): 1900 nM | Kd (HLA-B*40:01 [6]; [15]): 10.4 nM

Sequence: FGRAKGSRAI
Kd (HLA-B*51:01; [10]): 14500 nM

Sequence: FSLGVLGMAL
Kd (HLA-B*51:01; [14]): 3860 nM | Kd (HLA-A*02:06; [14]): 3.5 nM

Sequence: FSRGNSLSGV
Kd (HLA-B*51:01; [14]): 11100 nM

Sequence: FTVHADTGCA
Kd (HLA-A*68:02; [10]): 134 nM

Sequence: GEWKEGEEV
Kd (HLA-B*44:02; [14]): 16300 nM | Kd (HLA-B*40:01 [6]; [14]): 295 nM

Sequence: GEYRLKGESR
Kd (HLA-B*40:01 [6]; [15]): 4130 nM

Sequence: GLYKQPGVPV
Kd (HLA-A*02:06; [16]): 804 nM | Kd (HLA-A*02:02; [16]): 1400 nM | Kd (HLA-A*68:02; [16]): ≥ 5000 nM | Kd (HLA-A*02:03; [16]): 23.8 nM

Sequence: GPLIAGGMLI
Kd (HLA-B*51:01; [9]): 18800 nM

Sequence: GTFHTMWHV
Kd (HLA-A*02:06; [14]): 7.33 nM | Kd (HLA-A*68:02; [14]): 12.2 nM

Sequence: GVLEEQGSFY
Kd (HLA-A*01:01 [4]; [17]): 1640 nM | Kd (HLA-A*30:01; [17]): ≥ 39600 nM | Kd (HLA-A*32:01; [17]): ≥ 69900 nM | Kd (HLA-A*30:02; [17]): 243 nM | Kd (HLA-A*26:01 [5]; [17]): 223 nM | Kd (HLA-A*29:02; [17]): 1020 nM

Sequence: IENTSANLSL
Kd (HLA-B*40:01 [6]; [10]): 34.4 nM

Sequence: ILRKATRRL
Kd (HLA-B*08:01; source organism: Influenza A virus (A/Ck/HK/CSW161/2003(H9N2))): 369 nM

Sequence: IMRRRQYVL
Kd (HLA-B*08:01; source organism: Giardia lamblia ATCC 50803): 4 nM

Sequence: IPPEKCDTL
Kd (HLA-B*51:01; source organism: Dengue virus 2 16681-PDK53): ≥ 77400 nM

Sequence: KEENLVKSM
Kd (HLA-B*40:01 [6]; [13]): 2830 nM

Sequence: KEYTYPDSL
IC50 (HLA-A*24:02; source organism: Zaire ebolavirus): ≥ 184000 nM

Sequence: LEKKITQWL
Kd (HLA-B*44:02; [18]): 331 nM | Kd (HLA-B*40:01 [6]; [18]): 191 nM
